This passage reports Kd results from patent US20130171152A1 (published 2013).

Like-named read-outs stand apart in the source and are kept apart here.

The target in experiment [1] is Homo sapiens MUC16 (GenBank NP-078966).
The target is the same in experiment [2]. This is another data set of the same source.

B1: 4A5.37 (antibody, V domains shown)
VH: VKLEESGGGFVKPGGSLKISCAASGFTFRNYAMSWVRLSPEMRLEWVATISSAGGYIFYSDSVQGRFTISRDNAKNTLHLQMGSLRSGDTAMYYCARQGFGNYGDYYAMDYWGQGTTVTVSS
VL: DIELTQSPSSLAVSAGEKVTMSCKSSQSLLNSRTRKNQLAWYQQKTGQSPELLIYWASTRQSGVPDRFTGSGSGTDFTLTISSVQAEDLAVYYCQQSYNLLTFGPGTKLEIKR
Regarding B1, the affinity in experiment [1], expressed as Kd, was 7.3 nM.

B2: 4H11.2.5 (antibody, V domains shown)
VH: VKLQESGGGFVKPGGSLKVSCAASGFTFSSYAMSWVRLSPEMRLEWVATISSAGGYIFYSDSVQGRFTISRDNAKNTLHLQMGSLRSGDTAMYYCARQGFGNYGDYYAMDYWGQGTTVTVSS
VL: DIELTQSPSSLAVSAGEKVTMSCKSSQSLLNSRTRKNQLAWYQQKPGQSPELLIYWASTRQSGVPDRFTGSGSGTDFTLTISSVQAEDLAVYYCQQSYNLLTFGPGTKLEVKR
Molecule B2 returned a Kd in experiment [2] of 6.8 nM.

In general, Kd refers to the constant that tells how readily two partners part at equilibrium. Higher therefore signals weaker binding.
